# Data: paper PMC8326586
# Test system: T1, AbTetR (TetR class G) (Acinetobacter baumannii AYE), ORF:695ec09f
# T1 sequence: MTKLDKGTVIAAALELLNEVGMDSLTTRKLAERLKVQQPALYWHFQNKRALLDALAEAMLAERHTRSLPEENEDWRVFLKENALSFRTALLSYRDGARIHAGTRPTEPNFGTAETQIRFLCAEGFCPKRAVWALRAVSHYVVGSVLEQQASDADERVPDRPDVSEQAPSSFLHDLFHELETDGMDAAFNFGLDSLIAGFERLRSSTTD
# Experiment: EMSA
row,Sequence,binding
1,CTGAAACTCCAGCGCCGCTCAATGGAGCGACTTTATCAACGATAAGGAGATGGACATATAACTTA (double strand) [65 bp tetR-tetA(G) fragment],binds
2,ATCAACGATAAGGAGATGGACATATAACTTATCGGTGATAAATTGTCAAGCACTGGCGAAGGAACGTGA (double strand) [70 bp tetR-tetA(G) fragment],binds
3,CTGAAACTCCAGCGCCGCTCAATGGAGCGACTTTATCAACGATAAGGAGATGGACATATAACTTATCGGTGATAAATTGTCAAGCACTGGCGAAGGAACGTGAATGACCAAACTGGACAAGGGCACCGTGATCGCGGCGGCGCTAGAGCTGTTGAACGAGGTTGGCATGGACAGCCTGACGACGCGGAAGCTCGCTGAACGCCTCAAGGTTCAGCA (double strand) [216 bp tetR-tetA(G) fragment],binds
4,GCACAAGCTCACGCAGAAGCGTCGGAAGGACGGGCATGATGAGGCCGAGACCCATGGCGTCAAGACCCACGATCAGCAGGGCAATGATGGCAGAGCTGCGCACCTGAAACTCCAGCGCCGCTCAATGGAGCGACTTTATCAACGATAAGGAGATGGACATATAACTTATCGGTGATAAATTGTCAAGCACTGGCGAAGGAACGTGA (double strand) [206 bp tetR-tetA(G) fragment],binds
5,CGAATCAAGCAGGAACCATCCAAGATTGGCATAAAAGGTACATTCAACCTTTTCACTGCATCCCATTGGTGCACGTACTCGGTCTTGCAACTCGGA (double strand) [96 bp non-binding sequence],no binding
6,CTGAAACTCCAGCGCCGCTCAATGGAGCGACTTTATCAACGATAAGGAGATGGACATATAACTTATCGGTGATAAATTGTCAAGCACTGGCGAAGGAACGTGA (double strand) [103 bp tetR-tetA(G) fragment],binds
